In data set [1] the target is T1, Mlh1-Mlh3 (Saccharomyces cerevisiae, UniProt P38920;Q12083 1-769;1-715).
T1 sequence 1: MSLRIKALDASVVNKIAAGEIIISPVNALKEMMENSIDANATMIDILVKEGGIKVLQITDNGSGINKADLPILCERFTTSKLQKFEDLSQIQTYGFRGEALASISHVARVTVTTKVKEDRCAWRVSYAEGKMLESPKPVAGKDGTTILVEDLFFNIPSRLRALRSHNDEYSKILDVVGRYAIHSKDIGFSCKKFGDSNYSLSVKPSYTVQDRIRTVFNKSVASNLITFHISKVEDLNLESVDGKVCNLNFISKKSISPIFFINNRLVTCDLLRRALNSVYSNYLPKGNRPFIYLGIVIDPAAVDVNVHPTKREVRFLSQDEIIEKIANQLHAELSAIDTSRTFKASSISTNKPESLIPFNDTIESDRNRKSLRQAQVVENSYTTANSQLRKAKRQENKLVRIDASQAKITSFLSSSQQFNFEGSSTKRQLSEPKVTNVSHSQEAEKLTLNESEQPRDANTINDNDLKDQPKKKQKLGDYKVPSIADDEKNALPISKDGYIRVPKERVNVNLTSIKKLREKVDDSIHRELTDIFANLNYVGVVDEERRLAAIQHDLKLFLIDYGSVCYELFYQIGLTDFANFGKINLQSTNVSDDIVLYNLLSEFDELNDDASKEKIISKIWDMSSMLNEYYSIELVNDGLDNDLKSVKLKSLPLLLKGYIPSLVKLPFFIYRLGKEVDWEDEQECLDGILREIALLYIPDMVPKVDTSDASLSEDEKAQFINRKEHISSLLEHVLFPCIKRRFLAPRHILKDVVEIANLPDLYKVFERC
T1 sequence 2: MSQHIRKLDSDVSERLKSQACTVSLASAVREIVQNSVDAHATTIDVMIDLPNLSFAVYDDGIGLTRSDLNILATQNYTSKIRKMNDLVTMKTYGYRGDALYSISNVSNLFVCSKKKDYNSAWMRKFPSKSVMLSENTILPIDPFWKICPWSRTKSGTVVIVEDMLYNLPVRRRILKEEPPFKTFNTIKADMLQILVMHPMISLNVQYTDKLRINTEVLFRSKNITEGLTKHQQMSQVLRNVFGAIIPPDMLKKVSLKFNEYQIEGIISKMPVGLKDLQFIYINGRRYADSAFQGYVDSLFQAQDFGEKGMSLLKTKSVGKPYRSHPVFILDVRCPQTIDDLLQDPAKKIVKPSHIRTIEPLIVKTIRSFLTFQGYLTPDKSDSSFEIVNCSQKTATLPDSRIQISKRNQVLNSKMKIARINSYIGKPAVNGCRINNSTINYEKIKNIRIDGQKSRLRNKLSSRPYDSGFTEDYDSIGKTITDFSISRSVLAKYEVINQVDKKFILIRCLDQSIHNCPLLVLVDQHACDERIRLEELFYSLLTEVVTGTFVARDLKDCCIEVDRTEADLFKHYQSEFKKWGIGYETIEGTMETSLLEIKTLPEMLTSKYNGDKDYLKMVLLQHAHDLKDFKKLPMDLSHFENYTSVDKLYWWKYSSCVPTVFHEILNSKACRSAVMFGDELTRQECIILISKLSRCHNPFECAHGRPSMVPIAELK
Kind of data set: competition; very strong competitor of plasmid nicking, 0-2000 nM, 1 mM Mg2+; Filter binding: 20 mM Tris-HCl pH 7.5, 0.01 mM EDTA, 2 mM MgCl2, 40 ug/mL BSA, 0.1 mM DTT, 15 uM nucleotide DNA, 10 min at 30 C (20 or 150 mM KCl in Fig 4B; KCl not stated for Fig 4A). The settings on record: protein: recombinant; copies: 1;1; 4-way junction with 26 bp mobile homologous core.

Data set [2] has as its target T1, Mlh1-Mlh3. As to the kind of experiment: competition; very strong competitor of plasmid nicking, 0-2000 nM oligo, 1 mM Mg2+; Filter binding: 20 mM Tris-HCl pH 7.5, 0.01 mM EDTA, 2 mM MgCl2, 40 ug/mL BSA, 0.1 mM DTT, 15 uM nucleotide DNA, 10 min at 30 C (20 or 150 mM KCl in Fig 4B; KCl not stated for Fig 4A). The settings on record: protein: recombinant; copies: 1;1; blunt.

B1: Holliday junction X26 (structured_DNA)
DNA 1: GCGCTACCAGTGATCACCAATGGATTGCTAGGACATCTTTGCCCACCTGCAGGTTCACCC
DNA 2: GGGTGAACCTGCAGGTGGGCAAAGATGTCCTAGCAATCCATTGTCTATGACGTCAAGCTC
DNA 3: GAGCTTGACGTCATAGACAATGGATTGCTAGGACATCTTTGCCGTCTTGTCAATATCGGC
DNA 4: GCCGATATTGACAAGACGGCAAAGATGTCCTAGCAATCCATTGGTGATCACTGGTAGCGC
Take B1: in data set [1], the binding result is reported as “binds”.

B2: +8 loop oligonucleotide (AO3142/AO3143) (dsDNA)
DNA 1: GGGTCAACGTGGGCAAAGATGTCCTAGCAAGTCAGAATTCGGTAGCGTG
DNA 2: CACGCTACCGAATTCTGACTTGCTAGGTGTGTGTGACATCTTTGCCCACGTTGACCC
With B2, in data set [2], the binding result is “binds”.

The values above are taken from PMC5409509, “The mismatch repair and meiotic recombination endonuclease Mlh1-Mlh3 is activated by polymer formation and can cleave DNA substrates in trans”.
